Series [1] deals with T1, 15N-G11,G20,G37-HMGA1(2/3) peptide (UniProt P17096 49-91).
T1 chain: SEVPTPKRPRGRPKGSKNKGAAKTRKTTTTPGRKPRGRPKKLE
In words: NMR.

Another series has as its target Sp1 (UniProt P08047 1-785). In words: EMSA.
Series [2] has as its target T2, HMGA1(2/3) peptide (AT-hooks DBD2 and DBD3) (UniProt P17096 49-91).
T2 chain: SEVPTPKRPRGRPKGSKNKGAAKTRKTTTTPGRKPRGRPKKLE
In words: EMSA.

Chain of Sp1 (P08047 whole entry): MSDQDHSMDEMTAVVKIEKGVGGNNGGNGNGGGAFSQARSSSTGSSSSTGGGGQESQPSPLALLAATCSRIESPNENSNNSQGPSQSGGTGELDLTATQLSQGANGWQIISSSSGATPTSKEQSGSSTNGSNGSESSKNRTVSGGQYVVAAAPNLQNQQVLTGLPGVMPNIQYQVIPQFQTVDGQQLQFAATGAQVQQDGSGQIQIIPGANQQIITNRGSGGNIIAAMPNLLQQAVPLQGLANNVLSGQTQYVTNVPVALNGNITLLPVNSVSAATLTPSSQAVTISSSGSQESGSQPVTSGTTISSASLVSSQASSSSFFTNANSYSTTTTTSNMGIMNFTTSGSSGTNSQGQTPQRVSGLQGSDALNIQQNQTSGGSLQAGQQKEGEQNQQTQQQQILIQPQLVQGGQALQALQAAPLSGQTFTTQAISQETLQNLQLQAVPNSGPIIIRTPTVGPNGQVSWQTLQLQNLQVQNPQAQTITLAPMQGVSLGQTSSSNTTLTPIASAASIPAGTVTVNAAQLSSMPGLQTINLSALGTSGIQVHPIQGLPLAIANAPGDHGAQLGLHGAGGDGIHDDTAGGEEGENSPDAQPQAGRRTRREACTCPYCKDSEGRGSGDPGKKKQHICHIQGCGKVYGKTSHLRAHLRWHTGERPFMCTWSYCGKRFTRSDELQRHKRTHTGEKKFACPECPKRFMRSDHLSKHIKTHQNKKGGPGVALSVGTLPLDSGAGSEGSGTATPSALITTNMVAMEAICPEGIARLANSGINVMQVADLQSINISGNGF

B1: NOS2 Oct 16-bp DNA (NMR) (dsDNA)
DNA 1: AGTTATGCAAAATAGC
DNA 2: GCTATTTTGCATAACT
With B1, the binding result in series [1] is given as “binds”.

B2: Sp1 consensus probe (dsDNA)
DNA 1: ATTCGATCGGGGCGGGGCGAGC
DNA 2: GCTCGCCCCGCCCCGATCGAAT
Regarding B2, the binding result with Sp1 is “binds”.

B3: NOS2 Oct EMSA probe (-65/-50) (dsDNA)
DNA 1: AGTTATGCAAAATAGC
DNA 2: GCTATTTTGCATAACT
With B3, in series [2], the binding result was “binds”.
